Measurements from PMC2868043, “The Yeast Cell Fusion Protein Prm1p Requires Covalent Dimerization to Promote Membrane Fusion” (PLoS ONE, 2010).

Experiments:
[1] = target: the molecule itself; assay: non-reducing SDS-PAGE and Western blot; whole cell lysate, reducing agent omitted from the sample buffer; cells induced with 10 µg/ml α-factor for 90 min (GFP alleles, anti-GFP blot) or with galactose (HA-PRM1, anti-HA blot); shows only SDS-resistant covalent dimers
[2] = target: the molecule itself; assay: non-reducing SDS-PAGE + affinity purification with mass spectrometry; Prm1p purified from mating cells under native conditions by α-myc immunoprecipitation, eluted with 2% SDS, 10% bis-Tris gel, colloidal blue staining; unreduced sample analysed by mass spectrometry (data not shown)

B1: Prm1-GFP (natural protein, S. cerevisiae, UniProt P53835 1-661, looked up)
chain: MSGFKCYLQLGDRLSQIWLNKYTLVLLLAMLKLLFFSKSIQHAIEVSETYILSNCYSIDSLYSKMTDNTPHYLGIMGNYLIEKGMEETVKATLETLSLIVYASEGLVNFAIDLYLGTYACLIVSAVDGTVDVATNITEKLISLVNDTVSSVANELDTGLNDISKIINKVIKAASKVENFFTGDDDDSNMTSSIKSVNLTISALHNLYIPSSINDKLEELSAKTPDFAQVKNTTKNLISVPFNEVRKNIKAVNASNIIGDTSVLYVPPVSLDNSTGICSSNQSEILAFYSILGHVLKIATVVCITVLICFAVGAMAPVAWNEIKLWRRLCGMRDHYMLSRQDSYTSFSSENTHELKDPFRDPPIQNGQYDVIASYQQCFQTWNTRIAGWMTNLVTFGKSPENIDPKTKQKIEWVVAYMTSERALCVLGIGLLGILVCICQFVMIALLKHKISHSLTSNDGDGVQNLLKSSTAVDIENQMSLWSVQTNKYINTTETNINQEVFGWINTTTLSVNNTVATMISDIDTTLADVFNGTLLYNPMKTVVGCAIENKLYTIEKAMTWIHDKAQLHIPRINGTQIKQALAKQTDNSTIPTASSTSAATENLLENLVNDMREGLLKILRAYHRITLGELTVALVILAVWLVQLPIALVILRLRLRKATFD
notes: Prm1p, mating-specific multipass membrane protein of S. cerevisiae; monomer 73 kD; Glycosylated (sugar modifications); Forms a disulfide-linked homodimer; also called Prm1p; source: S. cerevisiae (W303 derivatives), PRM1 promoter, induced with α-factor or by mating; in whole cell lysate or Triton X-100 solubilised membranes; not shown: GFP, C-terminal, kept
stoichiometry N [1]: 2

B2: HA-Prm1p (natural protein, S. cerevisiae, UniProt P53835 1-661, looked up)
chain: MSGFKCYLQLGDRLSQIWLNKYTLVLLLAMLKLLFFSKSIQHAIEVSETYILSNCYSIDSLYSKMTDNTPHYLGIMGNYLIEKGMEETVKATLETLSLIVYASEGLVNFAIDLYLGTYACLIVSAVDGTVDVATNITEKLISLVNDTVSSVANELDTGLNDISKIINKVIKAASKVENFFTGDDDDSNMTSSIKSVNLTISALHNLYIPSSINDKLEELSAKTPDFAQVKNTTKNLISVPFNEVRKNIKAVNASNIIGDTSVLYVPPVSLDNSTGICSSNQSEILAFYSILGHVLKIATVVCITVLICFAVGAMAPVAWNEIKLWRRLCGMRDHYMLSRQDSYTSFSSENTHELKDPFRDPPIQNGQYDVIASYQQCFQTWNTRIAGWMTNLVTFGKSPENIDPKTKQKIEWVVAYMTSERALCVLGIGLLGILVCICQFVMIALLKHKISHSLTSNDGDGVQNLLKSSTAVDIENQMSLWSVQTNKYINTTETNINQEVFGWINTTTLSVNNTVATMISDIDTTLADVFNGTLLYNPMKTVVGCAIENKLYTIEKAMTWIHDKAQLHIPRINGTQIKQALAKQTDNSTIPTASSTSAATENLLENLVNDMREGLLKILRAYHRITLGELTVALVILAVWLVQLPIALVILRLRLRKATFD
notes: Prm1p, S. cerevisiae, under control of the GAL1 promoter; also called GALPRO-HA-PRM1; source: S. cerevisiae (W303 derivative), genomic GAL1 promoter fusion, galactose induced; in whole cell lysate
stoichiometry N [1]: 2

B3: Prm1-myc (natural protein, S. cerevisiae, UniProt P53835 1-661, looked up)
chain: MSGFKCYLQLGDRLSQIWLNKYTLVLLLAMLKLLFFSKSIQHAIEVSETYILSNCYSIDSLYSKMTDNTPHYLGIMGNYLIEKGMEETVKATLETLSLIVYASEGLVNFAIDLYLGTYACLIVSAVDGTVDVATNITEKLISLVNDTVSSVANELDTGLNDISKIINKVIKAASKVENFFTGDDDDSNMTSSIKSVNLTISALHNLYIPSSINDKLEELSAKTPDFAQVKNTTKNLISVPFNEVRKNIKAVNASNIIGDTSVLYVPPVSLDNSTGICSSNQSEILAFYSILGHVLKIATVVCITVLICFAVGAMAPVAWNEIKLWRRLCGMRDHYMLSRQDSYTSFSSENTHELKDPFRDPPIQNGQYDVIASYQQCFQTWNTRIAGWMTNLVTFGKSPENIDPKTKQKIEWVVAYMTSERALCVLGIGLLGILVCICQFVMIALLKHKISHSLTSNDGDGVQNLLKSSTAVDIENQMSLWSVQTNKYINTTETNINQEVFGWINTTTLSVNNTVATMISDIDTTLADVFNGTLLYNPMKTVVGCAIENKLYTIEKAMTWIHDKAQLHIPRINGTQIKQALAKQTDNSTIPTASSTSAATENLLENLVNDMREGLLKILRAYHRITLGELTVALVILAVWLVQLPIALVILRLRLRKATFD
notes: Prm1p, mating-specific multipass membrane protein of S. cerevisiae; Made by replacing the GFP of the PRM1-GFP plasmid with the tag of a PRM1-myc strain, so the tag is probably C-terminal; also called Prm1p; source: S. cerevisiae (W303 derivatives), PRM1 promoter, mating cells; in Triton X-100 solubilised membranes, or purified by α-myc immunoprecipitation
stoichiometry N [2]: 2
